# Test results from patent US6995018B1, “Complex formed by N-linked glycoproteins (SIBLINGS)and Factor H” (The United States of America as represented by the …, priority 1999, dated 2006).
# Entries after “also recorded” stand apart in the source; their conditions may differ.
# B1: DMP1: dentin matrix protein, SIBLINGS family member; recombinant from adenoviral construct (protein)
# chain: LPVTRYQNNESEDSEEWKGHLAQAPTPPLESSESSEGSKVSSEEQANEDPSDSTQSEEGLGSDDHQYIYRLAGGFSRSTGKGGDDKDDDEDDSGDDTFGDDDSGPGPKDRQEGGNSRLGSDEDSDDTIQASEESAPQGQDSAQDTTSESRELDNEDRVDSKPEGGDSTQESESEEHWVGGGSDGESSHGDGSELDDEGMQSDDPESIRSERGNSRMNSAGMKSKESGENSEQANTQDSGGSQLLEHPSRKIFRKSRISEEDDRSELDDNNTMEEVKSDSTENSNSRDTGLSQPRRDSKGDSQEDSKENLSQEESQNVDGPSSESSQEANLSSQENSSESQEEVVSESRGDNPDPTTSYVEDQEDSDSSEEDSSHTLSHSKSESREEQADSESSESLNFSEESPESPEDENSSSQEGLQSHSSSAESQSEESHSEEDDSDSQDSSRSKEDSNSTESKSSSEEDGQLKNIEIESRKLTVDAYHNKPIGDQDDNDCQDGY
# B2: BSP: Bone sialoprotein, phosphorylated and sulfated integrin-binding glycoprotein, SIBLINGS family; recombinant form from adenovirus-infected human marrow stromal fibroblasts (protein)
# chain: FSMKNLHRRVKIEDSEENGVFKYRPRYYLYKHAYFYPHLKRFPVQGSSDSSEENGDDSSEEEEEEEETSNEGENNEESNEDEDSEAENTTLSATTLGYGEDATPGTGYTGLAAIQLPKKAGDITNKATKEKESDEEEEEEEEGNENEESEAEVDENEQGINGTSTNSTEAENGNGSSGGDNGEEGEEESVTGANAEGTTETGGQGKGTSKTTTSPNGGFEPTTPPQVYRTTSPPFGKTTTVEYEGEYEYTGVNEYDNGYEIYESENGEPRGDNYRAYEDEYSYFKGQGYDGYDGQNYYHHQ
# Legend:
# [1] = molecular target: T1, purified human complement Factor H (Homo sapiens, UniProt P08603); experiment: Steady state fluorescence titration of Factor H with SIBLINGS proteins; assay type: binding; details: fluorescence quenching at 347 nm, excitation 295 nm
# T1 construct: purchased Quidel Corporation (San Diego, Calif.)
# Text: FIGS. 3A and 3B are graphs which show the result of a titration of Factor H with BSP.
# The salient structural features of Factor H include 20 short consensus repeats (SCRs) that contain four cysteine residues forming two disulfide bonds per repeat. In addition, each SCR contains one conserved tryptophan residue per repeat and Factor H is known to interact with several sialic acid-containing proteins. Therefore, binding interactions between members of the SIBLINGS family of proteins and Factor H can be studied by steady state fluorescence.
# Steady state fluorescence studies were accomplished by titrating purified human complement Factor H with rBSP, rOPN, and rDMP1 followed by excitation at 295 nm and monitoring emission between 300 and 450 nm. The emission profile of Factor H alone yields a peak at 347 nm. The addition of rBSP, rOPN, or rDMP1 in nm increments causes a relative fluorescent intensity quenching. Conversion of the fluorescent intensity titration into a binding curve by determining the fraction of binding sites occupied as the fractional change in fluorescence quenching at 347 nm yields a saturable binding curve. […] Given that normal serum concentration of Factor H is ^˜0.5 mg/mL it is probable that virtually all BSP, OPN, and DMP1 in serum will be complexed with Factor H.
# [2] = tested on: Murine erythroleukemia (MEL) cells; experiment: Alternate complement mediated cell lysis assay, MEL cells with normal human serum; assay type: cell-based; details: for protection of MEL cells from complement-mediated lysis (cell viability): 10 μg/mL protein 10 min, normal human serum 1:10, 2 h, trypan blue and MTT
# Protocol: MEL cells were rinsed three times with GVB-MgEGTA buffer, resuspended in GVB-MgEGTA at a density of 5×10^6 cells/mL, and incubated at 37° C. with different concentrations of normal human serum. After 2 hrs, cells were harvested for trypan blue exclusion assay. The thiazolium blue assay was carried out at identical serum dilutions and cell viability was determined by absorbance at 560 nm. Each data point represents the average of three measurements. The error bars represent the standard deviation of the mean (A). MEL cells in GVB-MgEGTA buffer were incubated with 10 μg/mL of either rBSP or rOPN for 10 minutes at 37° C. Normal human serum was then added at a dilution of 1:10 and the cells were returned to 37° C., incubated for 2 hours and cell viability was determined by trypan blue and thiazolyl blue (MTT) reduction assays (B). Data from 3–7 separate experiments, with treatment replicates in triplicate, was combined to yield mean values. Error bars represent the standard error of the mean. N=number of experiments combined.
# MEL cells prepared as in FIG. 8 were treated with normal rBSP (10 μg/mL), rBSP whose RGD sequence had been mutated to KAE ([…]), and either GRGDS (SEQ ID NO: 10) peptide (400 μM) followed by rBSP or an αVβ3 antibody (1:4000) followed by rBSP for 10 minutes prior to the addition of normal human serum. The cells were then incubated for […] after which cell viability determined using the MTT assay (A). A cohort of MEL cells were pretreated with rOPN (10 μg/mL) alone, GRGDS (SEQ ID NO: 10) peptide followed by rOPN, the αVβ3 antibody followed by rOPN, or an anti-CD44 antibody (Chemicon, Co.) followed by rOPN, or hyaluronan (HA) followed by rOPN (B). Cells were then treated with normal human serum and viability assayed as in FIG. 8. […] The data represents the mean and standard error of the mean for three separate experiments. Statistical significance was determined by analysis of variance. Percent cell viability was determined using A560 absorbance values of various conditions and a control where no serum had been added (100% viable). The cross-hatched region represents that range of values observed when normal human serum (1:10) alone was added (maximal cell death).
# The first model system employed was a murine erythroleukemia (MEL) cell line which when incubated with normal human serum can be readily assayed for alternate complement pathway (ACP)-mediated cell lysis (Varnet et al., Curr. Opin. Cell Biol., 8(5):724–730, 1996). Cell survival was measured by both trypan blue dye exclusion and by thiazolyl blue (MTT) reduction by living mitochondria. Titration with dilutions of normal human serum and time courses were carried out to define optimal incubation conditions. At 1:10 dilution, human serum totally lysed the MEL cells as measured by both assay systems (FIG. 8A).
# Murine erytliroleukemia (MEL) cells (a gift of Dr. Marilyn Farquhar, Univ. CA San Diego.) grown in DMEM containing 10% fetal bovine serum and 4 mM glutamine were rinsed three times with gelatin veronal buffer with Mg2^+ and EGTA (GVB-MgEGTA, Sigma, St. Louis, Mo.). Cells were resuspended in GVB-MgEGTA at a density of 5×10^6 cells/mL and incubated at 37° C. with different concentrations of normal human serum diluted in GVB-MgEGTA. […] Cell viability was determined spectrophotometrically by absorbance at 560 nm. […]
# [3] = tested on: MCF-7 breast cancer cells; experiment: Alternate complement pathway cell lysis assay with guinea pig serum, MCF-7; assay type: cell-based, human; details: MCF-7, 10 μg/mL, guinea pig serum 1:5, trypan blue and MTT
# Protocol: (§1) Human cancer cell lines, MCF-7 (A) and U-266 (B) cells were rinsed three time with GVB-MgEGTA buffer and subsequently treated exactly as in the MEL cell complement-mediated cell lysis assay described above except complement active guinea pig serum (GPS) was substituted for human serum. Three different dilutions of GPS were assayed. For cultures pretreated with 10 μg/mL BSP or OPN, the dilution of GPS used was 1:5. Cell viability was determined by both trypan blue exclusion (solid bar) and MTT (open bar) assay. The bars represent the mean values of triplicate samples and the error bars are the standard deviation values.
# (§2) Murine erytliroleukemia (MEL) cells (a gift of Dr. Marilyn Farquhar, Univ. CA San Diego.) grown in DMEM containing 10% fetal bovine serum and 4 mM glutamine were rinsed three times with gelatin veronal buffer with Mg2^+ and EGTA (GVB-MgEGTA, Sigma, St. Louis, Mo.). Cells were resuspended in GVB-MgEGTA at a density of 5×10^6 cells/mL and incubated at 37° C. with different concentrations of normal human serum diluted in GVB-MgEGTA. […] Cell viability was determined spectrophotometrically by absorbance at 560 nm. […] Normal human serum collected for good complement activity was then added at a dilution of 1:10 and the cells returned to 37° C. for 2 hours and cell viability was determined by trypan blue-exclusion and MTT assays. […]
# U-266 myeloma cells = experiment: Alternate complement pathway cell lysis assay with guinea pig serum, U-266; assay type: cell-based, human; details: U-266, 10 μg/mL, guinea pig serum 1:5, trypan blue and MTT
# Protocol: as §1, §2
# T1 sequence (P08603 19-1231): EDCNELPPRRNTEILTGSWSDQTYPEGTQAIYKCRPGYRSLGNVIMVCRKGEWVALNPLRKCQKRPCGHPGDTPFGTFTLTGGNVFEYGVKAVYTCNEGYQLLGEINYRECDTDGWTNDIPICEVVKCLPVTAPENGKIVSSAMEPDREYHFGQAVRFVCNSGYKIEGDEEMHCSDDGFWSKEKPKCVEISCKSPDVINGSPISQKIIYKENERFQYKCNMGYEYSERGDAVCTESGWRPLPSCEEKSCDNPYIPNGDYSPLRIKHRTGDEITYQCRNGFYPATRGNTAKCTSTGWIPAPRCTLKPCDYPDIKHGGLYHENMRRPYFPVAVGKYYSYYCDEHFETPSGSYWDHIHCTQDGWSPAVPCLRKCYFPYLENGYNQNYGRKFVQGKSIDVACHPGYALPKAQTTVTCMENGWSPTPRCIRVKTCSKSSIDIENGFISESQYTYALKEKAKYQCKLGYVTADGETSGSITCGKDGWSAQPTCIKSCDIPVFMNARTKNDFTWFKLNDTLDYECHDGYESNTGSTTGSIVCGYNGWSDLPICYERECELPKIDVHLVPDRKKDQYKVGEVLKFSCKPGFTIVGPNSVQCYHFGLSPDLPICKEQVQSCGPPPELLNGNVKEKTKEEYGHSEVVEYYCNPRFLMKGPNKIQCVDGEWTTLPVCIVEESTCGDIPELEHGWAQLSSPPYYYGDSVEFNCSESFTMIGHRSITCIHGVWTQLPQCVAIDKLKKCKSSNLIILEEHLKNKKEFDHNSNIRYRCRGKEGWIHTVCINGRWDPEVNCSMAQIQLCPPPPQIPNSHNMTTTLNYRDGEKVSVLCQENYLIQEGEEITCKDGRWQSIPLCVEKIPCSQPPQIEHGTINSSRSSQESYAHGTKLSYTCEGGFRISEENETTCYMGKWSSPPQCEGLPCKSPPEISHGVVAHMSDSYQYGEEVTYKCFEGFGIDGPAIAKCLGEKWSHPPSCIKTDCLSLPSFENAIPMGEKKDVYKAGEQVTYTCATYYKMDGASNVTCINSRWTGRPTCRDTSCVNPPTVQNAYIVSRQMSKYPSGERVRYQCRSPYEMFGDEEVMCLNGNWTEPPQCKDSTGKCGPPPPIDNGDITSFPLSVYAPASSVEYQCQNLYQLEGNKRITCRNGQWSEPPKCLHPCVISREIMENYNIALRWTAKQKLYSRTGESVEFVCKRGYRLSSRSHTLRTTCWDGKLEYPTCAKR
Molecule,binding constant with Factor H [1],dose relation of protection of MEL cells from alternate complement pathway-mediated lysis [2],protection of MEL cells from complement-mediated lysis (cell viability) [2],protection of MEL cells from complement-mediated lysis (cell viability) ([2]; listed as recombinant BSP),survival and protection from complement-mediated cell lysis [3],survival and protection from complement-mediated cell lysis (U-266 myeloma cells)
B1,in the nM range,dose related responses,conferred protection; also recorded: protect the cells,,,
B2,in the nM range,dose related responses,protect,completely protected,enhanced survival and protection,enhanced survival and protection
